Experimental findings from the supplement of paper PMC10567573 are described below.

The labels stand for the following.
B1: TMEM106C (parent)
chain: TVPEILVHNIVIFMRTSVKISYIG
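Note: lentivirally expressed fusions sorted by FACS into six bins by GFP to DsRed ratio, PSI derived from sequencing read proportions per bin multiplied by bin number.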

In the series the parent is B1. The experiment in a line: protein stability index of a GFP-peptide fusion (GPS, HEK-293T) (PSI 1-6); higher = more stable. Conditions: c terminus: a fixed tail appended.
TVPEILVHNIVIFMRTSVKICYIG [S21C]: the protein stability index amounted to 2.77.
Consider TVPEILVHNIVIFMRTSVKILYIG [S21L], for which the protein stability index came out at 3.4.
TVPEILVHNIVIFMHTSVKISYIG [R15H]: the protein stability index came out at 2.94.
Next, TVPEILVHNIVIFMVTSVKISYIG [R15V]: 3.67; TVPEILVHNIVIFMKTSVKISYIG [R15K]: 3.46.
On to TVPEILVHNIVIFMETSVKISYIG [R15E], for which the protein stability index came to 1.63.
The figure for TVPEILVHNIVIFMPTSVKISYIG [R15P] is 2.47; for TVPEILVHNIVIFMDTSVKISYIG [R15D] it is 2.57.
As for TVPEILVHNIVIFMLTSVKISYIG [R15L], the protein stability index is 3.26.
The figure for TVPEILVHNIVIFMGTSVKISYIG [R15G] is 3.23; for TVPEILVHNIVIFMATSVKISYIG [R15A] it is 2.33.
Take TVPEILVHNIVIFMSTSVKISYIG [R15S]: the protein stability index came out at 3.18.
Next, TVPEILVHNIVIFMMTSVKISYIG [R15M]: 3.77; TVPEILVHNIVIFMITSVKISYIG [R15I]: 4.22; TVPEILVHNIVIFMNTSVKISYIG [R15N]: 3.2.
As for TVPEILVHNIVIFMTTSVKISYIG [R15T], the protein stability index was found to be 2.69.
Next, TVPEILVHNIVIFMQTSVKISYIG [R15Q]: 2.73; TVPEILVHNIVIFMFTSVKISYIG [R15F]: 3.57; TVPEILVHNIVIFMCTSVKISYIG [R15C]: 2.91.
For TVPEILVHNIVIFMRTTVKISYIG [S17T], the protein stability index was 3.17.
The figure for TVPEILVHNIVIFMRTKVKISYIG [S17K] is 4.27; for TVPEILVHNIVIFMRTHVKISYIG [S17H] it is 2.76; for TVPEILVHNIVIFMRTQVKISYIG [S17Q] it is 3.81.
Take TVPEILVHNIVIFMRTFVKISYIG [S17F]: the protein stability index amounted to 4.33.
Next, TVPEILVHNIVIFMRTAVKISYIG [S17A]: 4.19; TVPEILVHNIVIFMRTNVKISYIG [S17N]: 3.88.
On to TVPEILVHNIVIFMRTYVKISYIG [S17Y], for which the protein stability index amounted to 3.
Turning to TVPEILVHNIVIFMRTLVKISYIG [S17L], the protein stability index came to 2.29.
The figure for TVPEILVHNIVIFMRTCVKISYIG [S17C] is 3.88.
Consider TVPEILVHNIVIFMRTDVKISYIG [S17D], for which the protein stability index turned out to be 2.48.
The figure for TVPEILVHNIVIFMRTIVKISYIG [S17I] is 2.2; for TVPEILVHNIVIFMRTRVKISYIG [S17R] it is 3.66; for TVPEILVHNIVIFMRTGVKISYIG [S17G] it is 2.1.
As for TVPEILVHNIVIFMRTEVKISYIG [S17E], the protein stability index was 3.3.
The figure for TVPEILVHNIVIFMRTWVKISYIG [S17W] is 3.7.
Next, TVPEILVHNIVIFMRTMVKISYIG [S17M]: 2.69.
The figure for TVPEILVHNIVIFMRTSVKKSYIG [I20K] is 3.3.
Take TVPEILVHNIVIFMRTSVKLSYIG [I20L]: the protein stability index turned out to be 3.56.
The figure for TVPEILVHNIVIFMRTSVKRSYIG [I20R] is 2.13.
On to TVPEILVHNIVIFMRTSVKESYIG [I20E], for which the protein stability index stood at 3.72.
Next, TVPEILVHNIVIFMRTSVKHSYIG [I20H]: 4.04.
Next, TVPEILVHNIVIFMRTSVKGSYIG [I20G]: 3.25; TVPEILVHNIVIFMRTSVKCSYIG [I20C]: 3.79.
Turning to TVPEILVHNIVIFMRTSVKQSYIG [I20Q], the protein stability index came out at 4.14.
On to TVPEILVHNIVIFMRTSVKNSYIG [I20N], for which the protein stability index was 1.
The figure for TVPEILVHNIVIFMRTSVKASYIG [I20A] is 2.52; for TVPEILVHNIVIFMRTSVKVSYIG [I20V] it is 1.4.
Consider TVPEILVHNIVIFMRTSVKWSYIG [I20W], for which the protein stability index amounted to 2.88.
Next, TVPEILVHNIVIFMRTSVKDSYIG [I20D]: 3.71; TVPEILVHNIVIFMRTSVKSSYIG [I20S]: 3.33.
Next, TVPEILVHNIVIFMRTSVKPSYIG [I20P]: 3.39; TVPEILVHNIVIFMRTSVKYSYIG [I20Y]: 3.86; TVPEILVHNIVIFMRTSVKTSYIG [I20T]: 3.24.
TVPEILVHNIVIFMRTSVKFSYIG [I20F]: the protein stability index turned out to be 3.1.
With TVPEILVHNIVIFMRYSVKISYIG [T16Y], the protein stability index was 3.88.
Take TVPEILVHNIVIFMRESVKISYIG [T16E]: the protein stability index turned out to be 2.54.
Next, TVPEILVHNIVIFMRISVKISYIG [T16I]: 1.93; TVPEILVHNIVIFMRRSVKISYIG [T16R]: 2.5; TVPEILVHNIVIFMRFSVKISYIG [T16F]: 3.06.
The figure for TVPEILVHNIVIFMRNSVKISYIG [T16N] is 2.98; for TVPEILVHNIVIFMRSSVKISYIG [T16S] it is 2.54.
For TVPEILVHNIVIFMRQSVKISYIG [T16Q], the protein stability index amounted to 2.46.
As for TVPEILVHNIVIFMRASVKISYIG [T16A], the protein stability index came to 1.5.
As for TVPEILVHNIVIFMRWSVKISYIG [T16W], the protein stability index was 2.85.
Next, TVPEILVHNIVIFMRLSVKISYIG [T16L]: 3.11; TVPEILVHNIVIFMRDSVKISYIG [T16D]: 2.97; TVPEILVHNIVIFMRTSVKISYPG [I23P]: 3.49.
Turning to TVPEILVHNIVIFMRTSVKISYCG [I23C], the protein stability index amounted to 2.41.
Next, TVPEILVHNIVIFMRTSVKISYWG [I23W]: 3.22; TVPEILVHNIVIFMRTSVKISYRG [I23R]: 2.81; TVPEILVHNIVIFMRTSVKISYGG [I23G]: 2.88.
As to TVPEILVHNIVIFMRTSVKISYSG [I23S], the protein stability index stood at 3.05.
The figure for TVPEILVHNIVIFMRTSVKISYKG [I23K] is 4.25; for TVPEILVHNIVIFMRTSVKISYAG [I23A] it is 3.15; for TVPEILVHNIVIFMRTSVKISYYG [I23Y] it is 3.25.
Take TVPEILVHNIVIFMRTSVKISYNG [I23N]: the protein stability index was found to be 3.26.
Next, TVPEILVHNIVIFMRTSVKISYVG [I23V]: 2.4; TVPEILVHNIVIFMRTSVKISYFG [I23F]: 3.86.
The figure for TVPEILVHNIVIFMRTSVKISYQG [I23Q] is 4.15; for TVPEILVHNIVIFMRTSVKISYHG [I23H] it is 1.77.
Turning to TVPEILVHNIVIFMRTSVKISYDG [I23D], the protein stability index worked out at 3.85.
Next, TVPEILVHNIVIFMRTSVKISYTG [I23T]: 3.01.
In the case of TVPEILVHNIVIFMRTSVKISYMG [I23M], the protein stability index was 3.06.
For TVPEILVHNIVIFMRTSVKISYIH [G24H], the protein stability index is 2.84.
The figure for TVPEILVHNIVIFMRTSVKISYIN [G24N] is 3.8; for TVPEILVHNIVIFMRTSVKISYIL [G24L] it is 2.82.
Next, TVPEILVHNIVIFMRTSVKISYII [G24I]: 3.38.
Next, TVPEILVHNIVIFMRTSVKISYIK [G24K]: 2.98; TVPEILVHNIVIFMRTSVKISYIF [G24F]: 3.89; TVPEILVHNIVIFMRTSVKISYID [G24D]: 2.27.
TVPEILVHNIVIFMRTSVKISYIC [G24C]: the protein stability index came to 2.8.
On to TVPEILVHNIVIFMRTSVKISYIM [G24M], for which the protein stability index is 3.57.
Turning to TVPEILVHNIVIFMRTSVKISYIA [G24A], the protein stability index is 2.22.
As to TVPEILVHNIVIFMRTSVKISYIE [G24E], the protein stability index is 3.36.
